# In the supplement of paper PMC12042874:
# ± gives the uncertainty stated by the source.
# Test: amyloid nucleation score (Sup35N fusion, yeast selection) (log enrichment); library NNK1; higher = more nucleation; inactive = no reads after selection
# Method in brief: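 Peptides of 20 random codons, each fused to Sup35N, were expressed in psi-negative yeast. Cells were induced with 100 μM copper sulfate for 24 hours and grown 7 days at 30°C on medium lacking adenine and uracil, and plasmid inserts before and after selection were Illumina-sequenced. Nucleation scores are DiMSum log enrichments of output over input reads, centred on the mode score of non-aggregating sequences, and sequences under 100 input reads were excluded.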
row,Substance,amyloid nucleation score
1,VCNIS,0.985 ± 0.42
2,MNLYNRNYLYCIYRKETTTT,-0.957 ± 1.4
3,DGASMSKRPPRVILKLGIFD,0.054 ± 0.33
4,WHSMKMCF,0.115 ± 0.45
5,IIYNAKE,0.367 ± 0.36
6,STYSSWQDTRVFNLAMLSI,-0.68 ± 0.85
7,GVGNTRQRVFRVVHCLAMLQ,0.634 ± 0.88
8,RWSETR,0.998 ± 0.48
9,PLFLYRFCKMVPVCILRIGW,0.415 ± 0.3
10,FSRSTQVSER,1.38 ± 0.61
11,SGAYLKASYTSPSVRVFLVL,2.75 ± 0.25
12,RSLLLALFAICYVCGGYEWV,1.24 ± 0.85
13,LYWSQIEVVNPQTTEGLNRD,-0.528 ± 0.61
14,TNYQRIQHA,-0.903 ± 2.4
15,YHRGIYLFSRSC,-0.906 ± 0.88
16,WSGIIELC,1.74 ± 0.78
17,ISMNF,0.67 ± 1.1
18,LSNYYHDGILVIMRSATNDH,1.61 ± 0.41
19,QRLGQGIGGEWPTKL,0.995 ± 0.67
20,YVGAMCLTRGKVRRSEERN,0.553 ± 0.54
21,GVATPPLRANSLEG,inactive
22,SNQSDLMLLMENMIDYMKSL,1.32 ± 0.39
23,TAAYRFNESVHVSNSRFMVH,0.334 ± 0.42
24,QLKCPKNDHVIVWDFCINQL,2.28 ± 0.32
25,LFRIPDWPEL,-1.07 ± 0.77
26,MPLAKSPLTLG,4.39 ± 0.062

row,Substance,amyloid nucleation score
1,CLYARLSFASGYCGLAMRCV,0.477 ± 0.93
2,VITWEWFRFRRRFGKMEGCL,1.24 ± 0.28
3,GFSNLNSYD,-0.55 ± 0.3
4,YLGTFN,inactive
5,FVCRLATNYH,inactive
6,FMISRFLAMRILRTAIWRED,0.447 ± 0.78
7,TCFVVLYTKMNVFECFDLQV,-0.109 ± 0.51
8,SEGCCYRKGCVTTRDSALSG,inactive
9,GYPGCHLFVSWTTVGPVFFY,8.239 ± 0.047
10,RMPNGTWSIGRHLVD,0.384 ± 0.79
11,IILRFVCDI,inactive
12,KVHKLIDNYMLRSRWY,-0.139 ± 0.9
13,YARIAKRTFLVYSQNEARFE,0.843 ± 0.98
14,ERRLTTFCCMWANLGVADGT,0.436 ± 1
15,CWVCNEKRAFRRPVSNQLRV,-0.146 ± 0.85
16,HRQTNKGEHIQDHAAMLVFR,-0.18 ± 0.63
17,YELKQSL,-0.301 ± 0.73
18,TRFVVVVMIISQLRCLLCDM,0.61 ± 1
19,MLWTCKDNLCKDMTHVWSIY,inactive
20,NVIFPTYRFVRFPSYMTLGW,inactive
21,PKARYRFSWLTRYNLNNRRE,-0.608 ± 0.52
22,TFWYLLNCVSRLFNF,-0.013 ± 0.57
23,LMLVHRVF,-0.034 ± 0.51
24,DVFYVILNVSLVCSVPFLSA,-0.179 ± 0.72
25,EFDFK,-0.716 ± 0.74
26,IGACFWRFIFVKLSTNL,-0.406 ± 0.36

row,Substance,amyloid nucleation score
1,SSRFDSLFVNNIMIFWVSKF,5.015 ± 0.048
2,HCQVQHLTQFMWVIVMRTRD,3.5 ± 0.14
3,NGFDTKYSLEGLGYSWPMLV,0.407 ± 0.41
4,KDCDMIGDSVYGSKFVTREM,0.503 ± 0.34
5,NLINSIGIVEAWEILPASSR,0.124 ± 1.2
6,YEDLSNDYNSNRWIVYALSK,-0.189 ± 0.24
7,RPGMEADLLVNLPLF,0.958 ± 0.72
8,CNKWRYSFVCIPGISRQ,2.22 ± 0.091
9,LHLNLLAQDHLCREMTAAMS,-0.771 ± 1.7
10,LKRMFFSNVLFFGSMIAGNR,0.162 ± 0.59
11,VSNNYRDV,0.807 ± 0.72
12,RRVGWLRTRSG,0.731 ± 0.41
13,VSRFFGNRRTNSNENTAGVA,-1.15 ± 0.43
14,YLFAWSWEDGFYTGACRLLA,0.006 ± 0.29
15,YYFRFCREVIARLGMDMSSK,-0.341 ± 0.29
16,LSHRGVLVAMDRTMYPM,-0.621 ± 0.42
17,SVINIGRNMISI,-0.353 ± 0.67
18,DRPTFKLVFTMKLVSLVTSL,inactive
19,PLAPMFRLWENSVRYIAKLW,1.22 ± 0.64
20,DAMRGLPFYQYMHHMGNGYW,-0.083 ± 1.4
21,TFGNLRMDVRAPTRFKDLLK,1.27 ± 0.47
22,VFVTGLCSEDVTIYSTM,-2.44 ± 2.4
23,LLWNDCGFLRWASGH,2.59 ± 0.11
24,KMRILWVV,0.945 ± 0.51
25,QYNSGLDRMA,1.14 ± 0.62
26,FRGYSGL,1.46 ± 0.55

row,Substance,amyloid nucleation score
1,SIGFLYCPLMSCASNFKWSK,4.55 ± 0.068
2,FFWHVS,0.091 ± 0.65
3,SWDLGREYSGHRMTCLVWLV,-0.403 ± 0.68
4,TLHKFCLSGVHSFVGVTNST,0.06 ± 0.46
5,DTCYHINIGKTQSADQRDCT,0.219 ± 0.25
6,LCDMAIDVFCLSCCK,6.652 ± 0.05
7,FLYGYGADPMPMSSVGRGVK,-0.864 ± 0.51
8,KLGPVTYLYP,-0.03 ± 0.72
9,YGEPYV,0.829 ± 0.66
10,LYHIGIGLKRSFNDAYV,0.038 ± 0.44
11,INNGIQ,-0.047 ± 0.96
12,LYCNVISILACFVTTIRGRG,3.64 ± 0.16
13,FAQECLFMSVDLCLR,0.125 ± 1.1
14,KNALWVRTVKNMCVLWDTGF,-1.08 ± 1.4
15,KERIFPLTTEAMKLERKA,-0.341 ± 0.57
16,AVCIMFRVNRFIRIVNTGGC,0.042 ± 0.58
17,RSYGGLIKFNHVSDTL,-0.429 ± 0.93
18,WVILMMLCILRGRELSVAYW,-0.446 ± 0.99
19,ASLLMLLVGRKICLAQVNKG,0.412 ± 0.51
20,VCINFHYLVGINVIRRNDWV,4.48 ± 0.1
21,TGYVVVMVYCWSCLGGQSVA,0.119 ± 0.89
22,VSTLA,inactive
23,RTCAWVGQHATSLWPFNRGQ,0.493 ± 0.77
24,DVLLSFEYLD,inactive
25,FCQGYRLGS,0.19 ± 0.48
26,DLYSGSSFPEISGETSGYIP,0.06 ± 0.49

row,Substance,amyloid nucleation score
1,LWCCGGAFHSTDLGSAGLIM,0.372 ± 1.4
2,VVLRLRSSYFGGLAGMA,0.121 ± 0.33
3,TLSGVYTFCMFLVWVDSASG,0.843 ± 0.62
4,GIIRKVLAEANLNCKVSSYR,-0.488 ± 0.61
5,LHNYLLCTRVNRIDVLRMTL,-0.854 ± 0.37
6,PFYRNLFSWAGYILLCGCHE,-0.775 ± 0.75
7,DFSCGRMGFALERSLAMYRA,0.041 ± 0.53
8,LILEHNFWVRISYELVPCFW,1.15 ± 0.3
9,RWFDYDESESVKSVHLNLVR,-1.37 ± 0.89
10,TPTTLKDYYPRAGNINRMTY,-0.15 ± 0.28
11,CCLLDWSLDNGYNRQLRKET,0.219 ± 0.32
12,HSVYL,1.24 ± 0.3
13,GMFYVLVGENCCFYALVWTL,-0.223 ± 0.23
14,RSRPVPIVKDRSISNSRESR,-0.999 ± 2.4
15,MFCKAVSKERWMV,-0.269 ± 0.92
16,TFSYILDWFEVSLTHRGALI,0.192 ± 0.41
17,RGSYHRLWCI,0.114 ± 0.72
18,SYTGHPMNDRWHIG,3.4 ± 0.074
19,HLHLGCWW,3.31 ± 0.14
20,TMIGILWCSYINVALYSGGL,1.22 ± 0.28
21,YSVMYMQSFFDKWLSTSAFR,-1.17 ± 1.4
22,EDLRLGSSYYEMANEASYGT,1.82 ± 0.11
23,YLICWVIPGSNVGLMVGMTA,0.093 ± 1.4
24,SRCRGSYTSSNSYWPAGDPM,-0.777 ± 1.7
